This note sets out measurements from publication PMC9945446, “DNMT1 inhibition by pUG-fold quadruplex RNA”.

Data set [1] concerns the target T1, DNMT1 (human, UniProt P26358 1-1616). Put plainly: EMSA; 100 mM KCl; 50 mM Tris-HCl pH 7.5, 100 mM KCl (or LiCl), 2.5 mM MgCl2, 0.1 mM ZnCl2, 2 mM BME, 0.05% NP40, 5% glycerol, 0.1 mg/mL BSA, 0.1 mg/mL yeast tRNA; 30 C 1 h; 1% agarose gel in 1x TBE at 4 C. The settings on record: protein: recombinant, tags: MBP tag cleaved with PreScission protease; for Kd: label: 5' 32P.

The target of data set [2] is T1, DNMT1. Described as above. The following applies: protein: recombinant; tags: MBP tag cleaved with PreScission protease; label: 5' 32P; one pUG-fold in K+.
In data set [3] the target is T1, DNMT1. Put plainly: EMSA; 100 mM KCl; undetectable; 50 mM Tris-HCl pH 7.5, 100 mM KCl (or LiCl), 2.5 mM MgCl2, 0.1 mM ZnCl2, 2 mM BME, 0.05% NP40, 5% glycerol, 0.1 mg/mL BSA, 0.1 mg/mL yeast tRNA; 30 C 1 h; 1% agarose gel in 1x TBE at 4 C. The settings on record: protein: recombinant; tags: MBP tag cleaved with PreScission protease; label: 5' 32P; unstructured.
For data set [4], the target named is T1, DNMT1. Put plainly: EMSA; 100 mM KCl; 50 mM Tris-HCl pH 7.5, 100 mM KCl (or LiCl), 2.5 mM MgCl2, 0.1 mM ZnCl2, 2 mM BME, 0.05% NP40, 5% glycerol, 0.1 mg/mL BSA, 0.1 mg/mL yeast tRNA; 30 C 1 h; 1% agarose gel in 1x TBE at 4 C. The settings on record: protein: recombinant; tags: MBP tag cleaved with PreScission protease; label: 5' 32P; canonical G4.

T1 sequence (P26358 whole entry): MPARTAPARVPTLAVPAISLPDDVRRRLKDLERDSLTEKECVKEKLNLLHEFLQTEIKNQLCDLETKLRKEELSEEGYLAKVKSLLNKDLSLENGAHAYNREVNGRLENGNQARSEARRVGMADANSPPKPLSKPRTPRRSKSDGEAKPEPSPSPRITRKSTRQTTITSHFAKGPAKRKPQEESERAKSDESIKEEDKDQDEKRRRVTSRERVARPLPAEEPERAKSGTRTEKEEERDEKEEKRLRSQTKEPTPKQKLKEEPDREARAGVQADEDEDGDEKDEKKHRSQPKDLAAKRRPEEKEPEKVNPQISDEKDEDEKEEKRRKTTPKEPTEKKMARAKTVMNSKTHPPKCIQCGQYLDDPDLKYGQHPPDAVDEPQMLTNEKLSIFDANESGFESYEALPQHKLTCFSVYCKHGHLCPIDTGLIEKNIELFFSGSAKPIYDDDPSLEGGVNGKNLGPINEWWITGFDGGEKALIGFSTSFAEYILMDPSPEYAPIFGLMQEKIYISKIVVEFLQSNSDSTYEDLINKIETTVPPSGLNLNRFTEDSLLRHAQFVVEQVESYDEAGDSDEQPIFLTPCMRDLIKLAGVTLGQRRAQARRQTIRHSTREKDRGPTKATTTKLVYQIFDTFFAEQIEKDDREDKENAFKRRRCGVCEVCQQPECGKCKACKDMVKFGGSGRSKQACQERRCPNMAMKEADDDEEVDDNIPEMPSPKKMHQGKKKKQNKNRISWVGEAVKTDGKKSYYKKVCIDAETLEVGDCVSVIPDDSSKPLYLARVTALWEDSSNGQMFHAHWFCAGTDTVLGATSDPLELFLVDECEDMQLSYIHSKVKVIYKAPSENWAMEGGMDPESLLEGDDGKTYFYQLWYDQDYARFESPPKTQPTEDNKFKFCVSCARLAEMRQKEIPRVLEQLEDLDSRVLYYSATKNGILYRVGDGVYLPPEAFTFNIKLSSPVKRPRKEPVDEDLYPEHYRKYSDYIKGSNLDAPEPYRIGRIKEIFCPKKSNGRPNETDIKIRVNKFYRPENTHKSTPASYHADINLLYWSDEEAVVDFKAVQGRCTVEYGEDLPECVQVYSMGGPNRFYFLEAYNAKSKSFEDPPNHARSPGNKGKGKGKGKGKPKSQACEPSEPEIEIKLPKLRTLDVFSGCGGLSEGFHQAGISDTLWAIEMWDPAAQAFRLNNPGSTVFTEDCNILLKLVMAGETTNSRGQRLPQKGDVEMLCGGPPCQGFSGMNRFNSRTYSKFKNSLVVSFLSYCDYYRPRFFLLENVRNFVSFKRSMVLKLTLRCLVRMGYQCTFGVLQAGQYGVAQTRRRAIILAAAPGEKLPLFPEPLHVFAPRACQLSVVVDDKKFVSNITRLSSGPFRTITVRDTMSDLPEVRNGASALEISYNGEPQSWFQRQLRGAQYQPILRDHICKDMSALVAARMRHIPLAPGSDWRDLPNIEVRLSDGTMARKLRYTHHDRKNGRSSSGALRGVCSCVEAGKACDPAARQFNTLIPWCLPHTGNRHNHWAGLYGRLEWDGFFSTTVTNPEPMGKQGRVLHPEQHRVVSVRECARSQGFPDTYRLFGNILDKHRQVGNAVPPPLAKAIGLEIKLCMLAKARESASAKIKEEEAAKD

One may read the Kd as the free concentration of one partner at which half of the binding sites on the other are occupied at equilibrium, for simple one-to-one binding. GUGUGUGUGUGUGUGUGUGUGUGUGUGUGUGUGUGUGUGU (structured_RNA) [(GU)20]: the Kd with DNMT1 [1] (pUG-fold (noncanonical G4) in K+) was 69 nM.

For GUGUGUGUGUGUGUGUGUGUGUGU (structured_RNA) [(GU)12], the binding signal with DNMT1 [2] is 5 fold weaker than (GU)20.

B1: (GU)30 (structured_RNA)
RNA: GUGUGUGUGUGUGUGUGUGUGUGUGUGUGUGUGUGUGUGUGUGUGUGUGUGUGUGUGUGU
As to B1, the Kd in the data set with DNMT1 [1] (pUG-fold, possibly two) worked out at 13 nM.

In the case of AAAAAAAAAAAAAAAAAAAAAAAAAAAAAAAAAAAAAAAA (ssRNA) [(A)40], the binding result with DNMT1 [3] was “no binding”.

For GGAAGGAAGGAAGGAAGGAAGGAAGGAAGGAAGGAAGGAA (structured_RNA) [(GGAA)10], the binding signal with DNMT1 [4] is 3 fold weaker than (GU)20.

B2: Hemimethylated DNA substrate (dsDNA)
DNA 1: TACGTATCCGTATCCGGTTACGTATCCGAATCCGTACCGT
DNA 2: ACGGTACGGATTCGGATACGTAACCGGATACGGATACGTA
modifications: 5mC at strand 1 positions 3,9,15,21,27,33,38
As to B2, the binding result with DNMT1 [1] (label: 32P end label, blunt) was “binds”.
